From patent US20230302116A1

Key:
[1] = target: nAb2 (Active Motif 91361), human anti-spike neutralizing antibody; test: repeat Octet BLI, target on AHC sensor, spike as analyte
[2] = target: nAb3 (Absolute Antibody Ab01680-10.0), human anti-spike neutralizing antibody; test: as above
[3] = target: nAb1 (Active Motif 91349), human anti-spike neutralizing antibody; test: as above
[4] = target: nAb2 (Active Motif 91361), human anti-spike neutralizing antibody; test: Octet BLI, target on AHC sensor, spike as analyte
[5] = target: nAb3 (Absolute Antibody Ab01680-10.0), human anti-spike neutralizing antibody; test: Octet BLI, target on AHC sensor, spike as analyte
[6] = target: nAb1 (Active Motif 91349), human anti-spike neutralizing antibody; test: Octet BLI, target on AHC sensor, spike as analyte

Q: Which kon [1] does the source give for “SPN-C52H8 (SARS-CoV 2 Spike protein with His Tag, Acro Biosystems) (from UniProt P0DTC2 14-1213)” here?
A: 54300 M⁻¹ s⁻¹

Q: What about the kon [2] of the same substance?
A: 11300 M⁻¹ s⁻¹

Q: What about the kon [3] of the same substance?
A: 18400 M⁻¹ s⁻¹

Q: And the kon [4]?
A: 115000 M⁻¹ s⁻¹

Q: What about the kon [5] of the same substance?
A: 34300 M⁻¹ s⁻¹

Q: And the kon [6]?
A: 75400 M⁻¹ s⁻¹
